Experimental data taken from patent US20110142849A1 (IRM, published 2011).

Legend:
Assay in all cases: specificity ELISA on coated antigen (88 ng per well), antibody at 2 µg/mL, ABS650
[1] = biological target: T1, hTrkB (human, UniProt Q16620)
T1 construct: panel antigen of the specificity ELISA
Method: (§1) For specificity ELISAs on purified human and mouse IgGs, a 384-well plate was coated with a panel of purified human or mouse antigens at 88 ng per well and incubated overnight at 4° C. The plate was blocked and washed as described above, then 22 μL of purified mouse or human anti-PCSK9 antibody diluted to 2 μg/mL in PBS was added to each well. The plate was incubated for 1 hr at 37° C. then washed with PBST. Anti-mouse Fc antibody (Jackson ImmunoResearch Labs #115-035-071) or anti-human kappa antibody (Sigma #A7164) conjugated to HRP was diluted 1:5000 in PBS (25 μL) and added to each well. The plate was incubated for 1 hr at room temperature, then washed and developed as described above.
(§2) In order to test whether the antigen specificity of the parental mouse antibody LFU720 was retained in the final Humaneered™ IgGs, LGT209, LGT210 and LGT211, binding of the antibodies to a panel of human and mouse antigens (as well as human PCSK9) was tested in an ELISA assay.

[2] = biological target: T2, hNotch-3 NRR (human, UniProt Q9UM47)
T2 construct: panel antigen of the specificity ELISA
T2 sequence (antigen, looked up): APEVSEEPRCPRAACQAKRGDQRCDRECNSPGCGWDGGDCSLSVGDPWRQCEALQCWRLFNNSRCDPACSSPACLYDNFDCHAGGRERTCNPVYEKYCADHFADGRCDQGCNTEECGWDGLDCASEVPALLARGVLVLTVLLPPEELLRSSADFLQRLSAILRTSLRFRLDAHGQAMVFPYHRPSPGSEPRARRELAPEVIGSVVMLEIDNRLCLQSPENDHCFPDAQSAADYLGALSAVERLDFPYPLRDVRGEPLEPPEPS
Method: as §1, §2

[3] = biological target: T3, hRspo-2 (human, UniProt Q6UXX9)
T3 construct: panel antigen of the specificity ELISA
T3 sequence (Q6UXX9 22-243 limits assumed): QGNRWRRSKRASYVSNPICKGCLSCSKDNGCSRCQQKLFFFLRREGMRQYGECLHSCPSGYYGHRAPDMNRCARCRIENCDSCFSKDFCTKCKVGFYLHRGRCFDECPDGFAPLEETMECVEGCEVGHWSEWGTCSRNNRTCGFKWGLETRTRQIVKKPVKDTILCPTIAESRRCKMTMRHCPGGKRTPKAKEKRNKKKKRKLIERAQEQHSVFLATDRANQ
Method: as §1, §2

[4] = biological target: T4, hAgr2 (human, UniProt O95994)
T4 construct: panel antigen of the specificity ELISA
T4 sequence (antigen, looked up): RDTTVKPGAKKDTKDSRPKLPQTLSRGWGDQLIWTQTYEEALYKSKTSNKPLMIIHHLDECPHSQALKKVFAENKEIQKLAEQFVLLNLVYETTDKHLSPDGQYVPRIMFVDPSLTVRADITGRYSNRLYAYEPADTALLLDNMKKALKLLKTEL
Method: as §1, §2

[5] = biological target: T5, hIL-12RB1 (human, UniProt P42701)
T5 construct: panel antigen of the specificity ELISA
Method: as §1, §2

[6] = biological target: T6, hFGFR4 (human, UniProt P22455)
T6 construct: panel antigen of the specificity ELISA
T6 sequence (antigen, looked up): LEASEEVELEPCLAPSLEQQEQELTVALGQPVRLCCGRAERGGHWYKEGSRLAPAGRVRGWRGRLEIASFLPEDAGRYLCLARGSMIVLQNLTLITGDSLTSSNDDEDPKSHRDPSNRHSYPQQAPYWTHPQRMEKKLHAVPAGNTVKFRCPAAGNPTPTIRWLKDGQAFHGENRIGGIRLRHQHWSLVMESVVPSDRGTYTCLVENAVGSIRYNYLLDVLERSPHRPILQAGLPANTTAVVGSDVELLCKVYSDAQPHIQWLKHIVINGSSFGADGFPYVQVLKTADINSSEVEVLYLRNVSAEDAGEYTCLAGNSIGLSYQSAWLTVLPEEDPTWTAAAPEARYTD
Method: as §1, §2

[7] = biological target: T7, hβ-Klotho (human, UniProt Q86Z14)
T7 construct: panel antigen of the specificity ELISA
T7 sequence (antigen, looked up): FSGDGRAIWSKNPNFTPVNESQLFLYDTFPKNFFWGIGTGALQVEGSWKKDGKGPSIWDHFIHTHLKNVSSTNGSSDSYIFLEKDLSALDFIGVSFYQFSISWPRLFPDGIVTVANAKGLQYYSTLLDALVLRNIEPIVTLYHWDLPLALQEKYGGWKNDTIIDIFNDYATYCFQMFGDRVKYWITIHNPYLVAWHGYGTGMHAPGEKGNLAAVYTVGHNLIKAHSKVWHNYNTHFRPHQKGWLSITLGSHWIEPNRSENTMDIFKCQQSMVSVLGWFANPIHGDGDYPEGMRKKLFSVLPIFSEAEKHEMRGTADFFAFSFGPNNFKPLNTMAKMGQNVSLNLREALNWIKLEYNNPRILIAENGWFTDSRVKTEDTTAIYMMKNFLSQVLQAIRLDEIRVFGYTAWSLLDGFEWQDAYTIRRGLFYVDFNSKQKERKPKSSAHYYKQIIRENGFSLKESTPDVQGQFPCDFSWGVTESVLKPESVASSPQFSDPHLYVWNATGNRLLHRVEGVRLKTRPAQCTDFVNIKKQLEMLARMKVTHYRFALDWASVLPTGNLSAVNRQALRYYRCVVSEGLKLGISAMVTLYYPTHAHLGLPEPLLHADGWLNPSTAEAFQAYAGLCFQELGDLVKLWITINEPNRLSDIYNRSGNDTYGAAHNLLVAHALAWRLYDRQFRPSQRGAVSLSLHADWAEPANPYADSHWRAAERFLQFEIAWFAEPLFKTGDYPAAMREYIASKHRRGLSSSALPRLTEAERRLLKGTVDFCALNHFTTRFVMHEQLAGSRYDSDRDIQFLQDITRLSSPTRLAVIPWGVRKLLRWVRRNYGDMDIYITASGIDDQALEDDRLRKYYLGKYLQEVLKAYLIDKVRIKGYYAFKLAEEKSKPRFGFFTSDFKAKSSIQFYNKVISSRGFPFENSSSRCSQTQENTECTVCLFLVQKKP
Method: as §1, §2

[8] = biological target: T8, hGITR (human, UniProt Q9Y5U5)
T8 construct: panel antigen of the specificity ELISA
T8 sequence (antigen, looked up): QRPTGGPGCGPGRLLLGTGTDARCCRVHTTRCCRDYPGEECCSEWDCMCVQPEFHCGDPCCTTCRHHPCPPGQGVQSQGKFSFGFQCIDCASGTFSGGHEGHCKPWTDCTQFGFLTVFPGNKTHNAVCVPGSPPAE
Method: as §1, §2

Measured: binding result

T1 sequence (Q16620 32-430 limits assumed): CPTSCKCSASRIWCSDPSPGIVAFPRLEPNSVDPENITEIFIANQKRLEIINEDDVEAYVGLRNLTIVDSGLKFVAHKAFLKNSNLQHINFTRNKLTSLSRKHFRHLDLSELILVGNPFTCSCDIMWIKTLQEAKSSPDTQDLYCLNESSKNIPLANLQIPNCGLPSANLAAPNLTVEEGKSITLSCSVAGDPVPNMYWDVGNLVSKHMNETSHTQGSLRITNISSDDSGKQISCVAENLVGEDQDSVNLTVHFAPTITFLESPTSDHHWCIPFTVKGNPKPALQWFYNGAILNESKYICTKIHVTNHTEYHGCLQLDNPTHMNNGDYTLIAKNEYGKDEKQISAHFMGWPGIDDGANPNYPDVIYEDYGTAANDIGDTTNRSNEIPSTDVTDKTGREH

B1: NVP-LGT211 (antibody, human IgG1, V domains shown)
VH: QVQLVQSGAEVKKPGASVKVSCKASGYTFSTMYMSWVRQAPGQGLEWMGRIDPANEHTNYAQKFQGRVTMTRDTSISTAYMELSRLTSDDTAVYYCARSYYYYAMDYWGQGTLVTVSS
VL: QIVLTQSPATLSVSPGERATLSCRASQSVSYMHWYQQKPGQAPRLLIYGVFRRATGIPDRFSGSGSGTDFTLTIGRLEPEDFAVYYCLQWSSDPPTFGQGTKLEIKR
notes: Silent human IgG1 kappa; also called pSR74 (Vh) + pJG10 (Vk); pSR074 + pJG10
no binding (tested: 2 µg/mL): all assays above

B2: NVP-LFU720 (antibody, V domains shown)
VH: EVQLQQSGAELMKPGASVKLSCTASGFNIKDMYMSWVRQRPEQGLEWIGRIDPANGHTNYDPKFQAKATITTDTSSKTAYLHLSSLTSEDTAVYYCARSYYYYAMDYWGQGTSVTVSS
VL: QIVLTQSPAIMSASPGEKVTMTCSASSSVSYMHWYQQKPGSSPRLWIYLTFNLASGVPARFSGSGSGTSYSLSISSMEAEDAATYYCLQWSSDPPTFGSGTKLEIK
notes: Murine anti-human Pcsk9 IgG1-kappa monoclonal antibody from a hybridoma; also called 5P20; NVP-LFU720-AX-1
no binding (tested: 2 µg/mL): all assays above
